Laboratory results as given in patent US20170137818, “APTAMER INHIBITING BIOLOGICAL ACTIVITY OF AUTOTAXIN BY BINDING WITH AUTOTAXIN, AND USE THEREOF” (RIBOMIC INC., published 2017).

B1: 12(82) (ssDNA)
DNA: CCTGGACGGAACCAGAATACTTTTGGTCTCCAGG
modifications: 2'-OMe C7,G9,A14,G15,A19,C20,A32,G33,G34; PS after T24; idT 5' and 3'
B2: 12(83) (ssDNA)
DNA: B1 DNA
modifications: 2'-OMe C7,G9,A14,G15,A19,C20,A32,G33,G34; PS after G25; idT 5' and 3'
B3: 12(100) (ssDNA)
DNA: B1 DNA
modifications: 2'-OMe C7,G9,A14,G15,A19,C20,A32,G33,G34; PS after A17; idT 5' and 3'
B4: 12(64) (ssDNA)
DNA: B1 DNA
modifications: 2'-OMe C7,G9,A14,A19,C20,A32,G33,G34; P-methyl G15; idT 5' and 3'
B5: 12(106) (ssDNA)
DNA: B1 DNA
modifications: 2'-OMe C7,G9,A14,G15,A19,C20,A32,G33,G34; PS after C7; idT 5' and 3'
B6: 12(99) (ssDNA)
DNA: B1 DNA
modifications: 2'-OMe C7,G9,A14,G15,A19,C20,A32,G33,G34; PS after A16; idT 5' and 3'
B7: 12(95) (ssDNA)
DNA: B1 DNA
modifications: 2'-OMe C7,G9,A14,G15,A19,C20,A32,G33,G34; P-methyl A6; idT 5' and 3'
B8: 12(60) (ssDNA)
DNA: B1 DNA
modifications: 2'-OMe C7,G9,A14,G15,A19,C20,A32,G33,G34; P-methyl T18; idT 5' and 3'
B9: 12(75) (ssDNA)
DNA: B1 DNA
modifications: 2'-OMe C7,G9,A14,G15,U18,A19,C20,A32,G33,G34; idT 5' and 3'
B10: 12(115) (ssDNA)
DNA: B1 DNA
modifications: 2'-OMe C7,G9,A14,G15,A19,C20,A32,G33,G34; PS after A32; idT 5' and 3'
B11: 12(126) (ssDNA)
DNA: B1 DNA
modifications: 2'-OMe C7,G9,A14,G15,A19,C20,A32,G33,G34; P-methyl C31; idT 5' and 3'
B12: 12(89) (ssDNA)
DNA: B1 DNA
modifications: 2'-OMe C7,G9,A14,G15,A19,C20,A32,G33,G34; P-methyl G26; idT 5' and 3'
B13: 12(130) (ssDNA)
DNA: B1 DNA
modifications: 2'-OMe C7,G9,A14,G15,A19,C20,A32,G33,G34; P-methyl C1; idT 5' and 3'
B14: 12(62) (ssDNA)
DNA: B1 DNA
modifications: 2'-OMe C7,G9,A14,G15,A19,C20,A32,G33,G34; P-methyl C28; idT 5' and 3'
B15: 12(124) (ssDNA)
DNA: B1 DNA
modifications: 2'-OMe C7,G9,A14,G15,A19,C20,A32,G33,G34; P-methyl A16; idT 5' and 3'
B16: 12(66) (ssDNA)
DNA: B1 DNA
modifications: 2'-OMe C7,G9,A14,G15,A19,C20,A32,G33,G34; 5' 40 kDa PEG (GL2-400TS) via ssH linker; 3' idT
B17: 12(65) (ssDNA)
DNA: B1 DNA
modifications: 2'-OMe C7,G9,A14,G15,A19,A32,G33,G34; P-methyl C20; idT 5' and 3'
B18: 12(111) (ssDNA)
DNA: B1 DNA
modifications: 2'-OMe C7,G9,A14,G15,A19,C20,A32,G33,G34; PS after G5; idT 5' and 3'
B19: 12(3) (ssDNA)
DNA: B1 DNA
modifications: 2'-OMe A32,G33,G34
B20: 12(98) (ssDNA)
DNA: B1 DNA
modifications: 2'-OMe C7,G9,A14,G15,A19,C20,A32,G33,G34; PS after G15; idT 5' and 3'
B21: 12(96) (ssDNA)
DNA: B1 DNA
modifications: 2'-OMe C7,G9,A14,G15,A19,C20,A32,G33,G34; P-methyl T29; idT 5' and 3'
B22: 12(67) (ssDNA)
DNA: B1 DNA
modifications: 2'-OMe C7,G9,A14,G15,A19,C20,A32,G33,G34; 5' 40 kDa PEG (GL4-400TS) via ssH linker; 3' idT
B23: 12(81) (ssDNA)
DNA: B1 DNA
modifications: 2'-OMe C7,G9,A14,G15,A19,C20,A32,G33,G34; PS after C13; idT 5' and 3'
B24: 12(113) (ssDNA)
DNA: B1 DNA
modifications: 2'-OMe C7,G9,A14,G15,A19,C20,A32,G33,G34; PS after C30; idT 5' and 3'
B25: 12(76) (ssDNA)
DNA: B1 DNA
modifications: 2'-OMe C7,G9,A14,G15,A19,C20,A32,G33,G34; PS after A6; idT 5' and 3'
B26: 12(79) (ssDNA)
DNA: B1 DNA
modifications: 2'-OMe C7,G9,A14,G15,A19,C20,A32,G33,G34; PS after A11; idT 5' and 3'
B27: 12(68) (ssDNA)
DNA: B1 DNA
modifications: 2'-OMe U3,C7,G9,A14,G15,A19,C20,A32,G33,G34; idT 5' and 3'
B28: 12(78) (ssDNA)
DNA: B1 DNA
modifications: 2'-OMe C7,G9,A14,G15,A19,C20,A32,G33,G34; PS after A10; idT 5' and 3'
B29: 12(80) (ssDNA)
DNA: B1 DNA
modifications: 2'-OMe C7,G9,A14,G15,A19,C20,A32,G33,G34; PS after C12; idT 5' and 3'
B30: 12(102) (ssDNA)
DNA: B1 DNA
modifications: 2'-OMe C7,G9,A14,G15,A19,C20,A32,G33,G34; PS after C20; idT 5' and 3'
B31: 12(116) (ssDNA)
DNA: B1 DNA
modifications: 2'-OMe C7,G9,A14,G15,A19,C20,A32,G33,G34; PS after G33; idT 5' and 3'

Experiments:
autotaxin (ENPP2/NPP2) = autotaxin (ENPP2/NPP2) (Homo sapiens, UniProt Q13822 Q13822:36-863); experiment: inhibition; LPA production, 0.10 uM aptamer, ~92% serum, 37C 3 h
[1] = biological target: autotaxin (endogenous, human pooled serum) (Homo sapiens, UniProt Q13822 Q13822:36-863); experiment: inhibition; LPA production in serum, 5.0 uM

Row | Binder | activity (autotaxin (ENPP2/NPP2)) [% inhibition] | activity [1] [% inhibition]
1 | B1 | 51 | –
2 | B2 | 54 | –
3 | B3 | 80 | –
4 | B4 | 63 | –
5 | B5 | 68 | –
6 | B6 | 81 | –
7 | B7 | 64 | –
8 | B8 | 50 | –
9 | B9 | 65 | –
10 | B10 | 77 | –
11 | B11 | 77 | –
12 | B12 | 48 | –
13 | B13 | 77 | –
14 | B14 | 75 | –
15 | B15 | 76 | –
16 | B16 | 77 | –

Row | Binder | activity (autotaxin (ENPP2/NPP2)) [% inhibition] | activity [1] [% inhibition]
17 | B17 | 57 | –
18 | B18 | 60 | –
19 | B19 | – | 92
20 | B20 | 76 | –
21 | B21 | 76 | –
22 | B22 | 74 | –
23 | B23 | 70 | –
24 | B24 | 66 | –
25 | B25 | 67 | –
26 | B26 | 37 | –
27 | B27 | 53 | –
28 | B28 | 62 | –
29 | B29 | 85 | –
30 | B30 | 72 | –
31 | B31 | 72 | –
